The source of these data is patent publication WO2016073894A1 (dated 2016).

Changes are numbered by the printed parent chain. Names and notes keep the numbering of the source.

In test [1] the target is T1, human IL-6 (human, UniProt P05231 30-212).
T1 construct: L19, R24 and D34 fit a start at residue 29 of the precursor; also called free IL-6; biotinylated human IL-6
The test can be described thus: ELISA on plates coated with human IL-6, hybridoma supernatants. In general terms: ELISA stands for enzyme-linked immunosorbent assay.

Test [2] addresses T1, human IL-6. Kind of test: cell-based or functional assay.
For test [3], the target named is hyper IL-6. The test can be described thus: cell-based or functional assay.
Test [4] addresses T2, IL-6R on HEK-Blue IL6 reporter cells (UniProt P08887 20-468, limits assumed).
T2 sequence (looked up): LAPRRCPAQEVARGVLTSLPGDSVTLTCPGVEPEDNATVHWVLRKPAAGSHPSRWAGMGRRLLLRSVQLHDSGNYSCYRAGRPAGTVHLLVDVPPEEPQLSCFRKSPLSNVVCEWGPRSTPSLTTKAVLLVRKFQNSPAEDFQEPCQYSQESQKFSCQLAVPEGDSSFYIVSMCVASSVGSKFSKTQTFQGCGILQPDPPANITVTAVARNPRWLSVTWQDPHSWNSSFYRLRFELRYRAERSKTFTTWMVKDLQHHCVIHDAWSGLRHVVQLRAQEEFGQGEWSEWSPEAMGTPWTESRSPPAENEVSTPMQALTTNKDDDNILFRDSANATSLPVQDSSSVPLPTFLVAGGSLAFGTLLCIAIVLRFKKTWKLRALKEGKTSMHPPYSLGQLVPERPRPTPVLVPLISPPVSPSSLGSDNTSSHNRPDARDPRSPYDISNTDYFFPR
Kind of test: cell-based or functional assay.

Test [5] has as its target T1, human IL-6. Kind of test: yeast Fab display; biotinylated IL-6 remaining after overnight competition with 2 uM IL-6.
The target of test [6] is T1, human IL-6. Kind of test: yeast system; format in the assay not stated.

B1: murine 64 antibody (antibody, V domains shown)
VH: QVQLQQSGAELVRPGTSVKVSCKASGYAFSNYLIEWVKQRPGQGLEWIGVITPGSGTINYNEKFKGKAVLTADKSSSTVYMQLSSLTSDDSAVYFCAKSRWDPLYYYALEYWGQGTSVTVSS
VL: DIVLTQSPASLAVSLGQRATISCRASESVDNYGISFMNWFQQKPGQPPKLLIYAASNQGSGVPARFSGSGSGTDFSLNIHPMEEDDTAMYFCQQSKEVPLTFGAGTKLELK
notes: Murine monoclonal from a hybridoma; also called Hybridoma 64; m64
Regarding B1, in test [1], the binding result is given as “binds”.

B2: EBI-030 IgG2 (antibody)
heavy: QVQLVQSGAEVKKPGSSVKVSCKASGYVLPNYLIEWVRQAPGQGLEWMGVTTPGGGTINYAQKFQGRVTITADESTSTAYMELSSLRSEDTAVYYCARSRWDPLYYYALEYWGQGTTVTVSSASTKGPSVFPLAPCSRSTSESTAALGCLVKDYFPEPVTVSWNSGALTSGVHTFPAVLQSSGLYSLSSVVTVPSSNFGTQTYTCNVDHKPSNTKVDKTVERKCCVECPPCPAPPVAGPSVFLFPPKPKDTLMISRTPEVTCVVVDVSHEDPEVQFNWYVDGVEVHNAKTKPREEQFNSTFRVVSVLTVVHQDWLNGKEYKCKVSNKGLPAPIEKTISKTKGQPREPQVYTLPPSREEMTKNQVSLTCLVKGFYPSDIAVEWESNGQPENNYKTTPPMLDSDGSFFLYSKLTVDKSRWQQGNVFSCSVMHEALHNHYTQKSLSLSPGK
light: DIVMTQSPDSLAVSLGERATINCRASESVDNYGIPFMNWYQQKPGQPPKLLIYAASNRGSGVPDRFSGSGSGTDFTLTISSLQAEDVAVYYCQQSEEVPLTFGQGTKLEIKRTVAAPSVFIFPPSDEQLKSGTASVVCLLNNFYPREAKVQWKVDNALQSGNSQESVTEQDSKDSTYSLSSTLTLSKADYEKHKVYACEVTHQGLSSPVTKSFNRGEC
On to B2, for which, in test [2], the “IC50 fold less than that of EBI-029, HEK-Blue IL6 cells” value was more than 50 fold; the “IC90 fold less than that of EBI-029, HEK-Blue IL6 cells” value was approximately 4000 fold; the “fold decrease in IC50 against EBI-029, HEK-Blue IL6 cells, 20 pM IL-6” value is approximately 50 fold; the “fold decrease in IC90 against EBI-029, HEK-Blue IL6 cells, 20 pM IL-6” value is more than 100 fold.

B3: EBI-031 (antibody, human IgG2, kappa)
heavy: B2 heavy with H311A
light: B2 light
In the case of B3, in test [2], the “IC50, cis-signaling, HEK-Blue IL6 cells, 20 pM free IL-6” value is 14.2 pM; the “IC50 fold less than that of EBI-029, HEK-Blue IL6 cells” value is more than 75 fold; the “IC90 fold less than that of EBI-029, HEK-Blue IL6 cells” value was approximately 350 fold; the “fold decrease in IC50 against EBI-029, HEK-Blue IL6 cells, 20 pM IL-6” value was approximately 50 fold. For the same molecule, in test [2], the “fold decrease in IC90 against EBI-029, HEK-Blue IL6 cells, 20 pM IL-6” value was more than 100 fold and the “fold greater potency than tocilizumab, cis-signaling, HEK-Blue IL6 cells” value was more than 900 fold. Moreover, in test [3], the “IC50, trans-signaling, HEK-Blue IL6 cells, 200 pM hyper IL-6” value amounted to 32 pM and the “fold more potent than tocilizumab, cellular assays” value was more than 900 fold.

B4: Tocilizumab (antibody, human IgG1, kappa, V domains shown)
VH: QVQLQESGPGLVRPSQTLSLTCTVSGYSITSDHAWSWVRQPPGRGLEWIGYISYSGITTYNPSLKSRVTMLRDTSKNQFSLRLSSVTAADTAVYYCARSLARTTAMDYWGQGSLVTVSS
VL: DIQMTQSPSSLSASVGDRVTITCRASQDISSYLNWYQQKPGKAPKLLIYYTSRLHSGVPSRFSGSGSGTDFTFTISSLQPEDIATYYCQQGNTLPYTFGQGTKVEIKR
As to B4, the “IC50, cis-signaling, HEK-Blue IL6 cells, 20 pM free IL-6” value in test [4] was 12.9 nM.

B5: EBI-029 Fab I51T/S55G (Fab, V domains shown)
VH: QVQLVQSGAEVKKPGSSVKVSCKASGYALSNYLIEWVRQAPGQGLEWMGVTTPGGGTINYAQKFQGRVTITADESTSTAYMELSSLRSEDTAVYYCARSRWDPLYYYALEYWGQGTTVTVSS
VL: DIVMTQSPDSLAVSLGERATINCRASESVDNYGIPFMNWYQQKPGQPPKLLIYAASNRGSGVPDRFSGSGSGTDFTLTISSLQAEDVAVYYCQQSEEVPLTFGQGTKLEIKR
notes: The mutations were introduced into the wild-type EBI-029 Fab; also called 151T/S55G
In the case of B5, in test [5], the binding result is recorded as “binds”.

B6: h64 IgG (antibody, V domains shown)
VH: B5 VH with L29F, T51I, G55S
VL: DIVMTQSPDSLAVSLGERATINCRASESVDNYGISFMNWYQQKPGQPPKLLIYAASNQGSGVPDRFSGSGSGTDFTLTISSLQAEDVAVYYCQQSKEVPLTFGQGTKLEIK
notes: Expressed as inline fusions with the human IgG1 constant domains; also called original h64 antibody; the original humanized molecule
Take B6: in test [6], the dissociation constant Kd came to 0.343 nM.

B7: EBI-029 Fab S30P/I51T/S55G (Fab, V domains shown)
VH: B5 VH with S30P
VL: B5 VL
Consider B7, for which the binding result in test [5] is on record as “binds”.

B8: EBI-029 Fab A28V/I51T/S55G (Fab, V domains shown)
VH: B5 VH with A28V
VL: B5 VL
Take B8: the binding result in test [5] was “binds”.

Usually Kd stands for the equilibrium constant for the complex coming apart.
